Biological target: T1, PD-L1 on PD-L1-positive cancer cells and tissues (human, UniProt Q9NZQ7 19-290)
T1 construct: whole, on cells; also called PD-L1 tumor antigen; CD274
Test: flow cytometry on cancer cell lines

T1 sequence (Q9NZQ7 19-290): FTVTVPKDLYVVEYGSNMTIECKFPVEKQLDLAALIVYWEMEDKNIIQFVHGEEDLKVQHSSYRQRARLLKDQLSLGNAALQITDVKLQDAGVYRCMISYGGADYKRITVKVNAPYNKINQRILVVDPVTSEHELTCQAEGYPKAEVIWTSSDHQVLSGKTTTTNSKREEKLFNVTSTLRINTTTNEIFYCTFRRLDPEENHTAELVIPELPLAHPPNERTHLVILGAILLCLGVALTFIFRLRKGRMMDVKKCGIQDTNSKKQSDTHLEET

binding result: binds
B1: mouse monoclonal anti-human PD-L1 antibody (hybridoma clone 7D2A10) (antibody, V domains shown)
VH: QIQLVQSGPELKNPGETVKISCKASGYTFTNYGMNWVKQAPGKGLKWMGWINTHTGEPTYADDFKGRFAFSSETSASSAYLQINNLKNDDMATYFCAKGTHREEIPAWFAYWGQGTLVTVSA
VL: DVLMTQTPLSLPVSLGDQASISCRSSQSIVHSNGNTYLEWYLQKPGQSPELLIYKVSNLFSGVPDRFSGSGSGTDFTLKISRVEAEDLGVYYCFQGSHVPPTFGAGTKLELKR
notes: also called Promab anti-PD-L1; PD-L1 monoclonal antibody

From patent publication US20230227557A1 (PROMAB BIOTECHNOLOGIES, published 2023)
